Abundance fitness data for 43 variants are collected here from the Human Domainome abundance scans (Beltran et al. 2025).

± gives the uncertainty stated by the source.

To fix the notation:
B1: DnaJ homolog subfamily C member 5, residues 16 to 77; numbered along this chain, Q9H3Z4 (parent)
chain: LYHVLGLDKNATSDDIKKSYRKLALKYHPDKNPDNPEAADKFKEINNAHAILTDATKRNIYD

The series covers variants of B1. As to the kind of experiment: abundance fitness (aPCA) (normalised: wild type 0, dead -1); higher = more abundant; growth selection in yeast, the domain comes from the species named. The conditions noted are these: Homo sapiens.
For LYHVLGLDKNATSDDITKSYRKLALKYHPDKNPDNPEAADKFKEINNAHAILTDATKRNIYD [K17T], the abundance fitness was -0.07 ± 0.096. Under LYHVLGLDKNATSDDIPKSYRKLALKYHPDKNPDNPEAADKFKEINNAHAILTDATKRNIYD [K17P] stands -1.31 ± 0.13. Under LYHVLGLDKNATSDDIDKSYRKLALKYHPDKNPDNPEAADKFKEINNAHAILTDATKRNIYD [K17D] stands -0.477 ± 0.47. Take LYHVLGLDKNATSDDIAKSYRKLALKYHPDKNPDNPEAADKFKEINNAHAILTDATKRNIYD [K17A]: the abundance fitness was 0.048 ± 0.068. Under LYHVLGLDKNATSDDIVKSYRKLALKYHPDKNPDNPEAADKFKEINNAHAILTDATKRNIYD [K17V] stands 0.039 ± 0.079; under LYHVLGLDKNATSDDIEKSYRKLALKYHPDKNPDNPEAADKFKEINNAHAILTDATKRNIYD [K17E], 0.084 ± 0.088; under LYHVLGLDKNATSDDICKSYRKLALKYHPDKNPDNPEAADKFKEINNAHAILTDATKRNIYD [K17C], -0.361 ± 0.1. In the case of LYHVLGLDKNATSDDIRKSYRKLALKYHPDKNPDNPEAADKFKEINNAHAILTDATKRNIYD [K17R], the abundance fitness was -0.032 ± 0.061. Next, LYHVLGLDKNATSDDINKSYRKLALKYHPDKNPDNPEAADKFKEINNAHAILTDATKRNIYD [K17N]: -0.248 ± 0.34.

LYHVLGLDKNATSDDIWKSYRKLALKYHPDKNPDNPEAADKFKEINNAHAILTDATKRNIYD [K17W]: the abundance fitness is -0.204 ± 0.069. LYHVLGLDKNATSDDIFKSYRKLALKYHPDKNPDNPEAADKFKEINNAHAILTDATKRNIYD [K17F]: the abundance fitness is -0.52 ± 0.19.

With LYHVLGLDKNATSDDIIKSYRKLALKYHPDKNPDNPEAADKFKEINNAHAILTDATKRNIYD [K17I], the abundance fitness is -0.107 ± 0.17. Regarding LYHVLGLDKNATSDDIHKSYRKLALKYHPDKNPDNPEAADKFKEINNAHAILTDATKRNIYD [K17H], the abundance fitness is 0.057 ± 0.13. In the case of LYHVLGLDKNATSDDISKSYRKLALKYHPDKNPDNPEAADKFKEINNAHAILTDATKRNIYD [K17S], the abundance fitness was -0.153 ± 0.075. Next, LYHVLGLDKNATSDDIQKSYRKLALKYHPDKNPDNPEAADKFKEINNAHAILTDATKRNIYD [K17Q]: -0.063 ± 0.09. Regarding LYHVLGLDKNATSDDIGKSYRKLALKYHPDKNPDNPEAADKFKEINNAHAILTDATKRNIYD [K17G], the abundance fitness is -0.251 ± 0.066. As for LYHVLGLDKNATSDDILKSYRKLALKYHPDKNPDNPEAADKFKEINNAHAILTDATKRNIYD [K17L], the abundance fitness is -0.18 ± 0.07. Next, LYHVLGLDKNATSDDIMKSYRKLALKYHPDKNPDNPEAADKFKEINNAHAILTDATKRNIYD [K17M]: -0.09 ± 0.09; LYHVLGLDKNATSYDIKKSYRKLALKYHPDKNPDNPEAADKFKEINNAHAILTDATKRNIYD [D14Y]: -0.431 ± 0.16. Under LYHVLGLDKNATSRDIKKSYRKLALKYHPDKNPDNPEAADKFKEINNAHAILTDATKRNIYD [D14R] stands -0.359 ± 0.056; under LYHVLGLDKNATSWDIKKSYRKLALKYHPDKNPDNPEAADKFKEINNAHAILTDATKRNIYD [D14W], -0.357 ± 0.075. Next, LYHVLGLDKNATSTDIKKSYRKLALKYHPDKNPDNPEAADKFKEINNAHAILTDATKRNIYD [D14T]: -0.346 ± 0.099; LYHVLGLDKNATSSDIKKSYRKLALKYHPDKNPDNPEAADKFKEINNAHAILTDATKRNIYD [D14S]: -0.242 ± 0.07; LYHVLGLDKNATSVDIKKSYRKLALKYHPDKNPDNPEAADKFKEINNAHAILTDATKRNIYD [D14V]: -0.341 ± 0.074. For LYHVLGLDKNATSDHIKKSYRKLALKYHPDKNPDNPEAADKFKEINNAHAILTDATKRNIYD [D15H], the abundance fitness was -0.679 ± 0.25.

With LYHVLGLDKNATSDYIKKSYRKLALKYHPDKNPDNPEAADKFKEINNAHAILTDATKRNIYD [D15Y], the abundance fitness is -0.888 ± 0.2.

LYHVLGLDKNATSDFIKKSYRKLALKYHPDKNPDNPEAADKFKEINNAHAILTDATKRNIYD [D15F]: the abundance fitness was -0.689 ± 0.23.

Consider LYHVLGLDKNATSDRIKKSYRKLALKYHPDKNPDNPEAADKFKEINNAHAILTDATKRNIYD [D15R], for which the abundance fitness was -0.693 ± 0.084.

For the variant LYHVLGLDKNATSDSIKKSYRKLALKYHPDKNPDNPEAADKFKEINNAHAILTDATKRNIYD [D15S], the abundance fitness was -0.382 ± 0.092.

As to LYHVLGLDKNATSDGIKKSYRKLALKYHPDKNPDNPEAADKFKEINNAHAILTDATKRNIYD [D15G], the abundance fitness is -0.433 ± 0.098. Take LYHVLGLDKNATSDWIKKSYRKLALKYHPDKNPDNPEAADKFKEINNAHAILTDATKRNIYD [D15W]: the abundance fitness was -0.271 ± 0.069. Under LYHVLGLDKNATSDAIKKSYRKLALKYHPDKNPDNPEAADKFKEINNAHAILTDATKRNIYD [D15A] stands -0.042 ± 0.069; under LYHVLGLDKNATSDLIKKSYRKLALKYHPDKNPDNPEAADKFKEINNAHAILTDATKRNIYD [D15L], -0.412 ± 0.07; under LYHVLGLDKNATSDIIKKSYRKLALKYHPDKNPDNPEAADKFKEINNAHAILTDATKRNIYD [D15I], -0.328 ± 0.14. Under LYHVLGLDKNATSDCIKKSYRKLALKYHPDKNPDNPEAADKFKEINNAHAILTDATKRNIYD [D15C] stands -0.24 ± 0.2; under LYHVLGLDKNATSDKIKKSYRKLALKYHPDKNPDNPEAADKFKEINNAHAILTDATKRNIYD [D15K], -0.17 ± 0.099. Next, LYHVLGLDKNATSDPIKKSYRKLALKYHPDKNPDNPEAADKFKEINNAHAILTDATKRNIYD [D15P]: -0.643 ± 0.12; LYHVLGLDKNATSDEIKKSYRKLALKYHPDKNPDNPEAADKFKEINNAHAILTDATKRNIYD [D15E]: -0.067 ± 0.12; LYHVLGLDKNATSDTIKKSYRKLALKYHPDKNPDNPEAADKFKEINNAHAILTDATKRNIYD [D15T]: -0.367 ± 0.11. In the case of LYHVLGLDKNATSDMIKKSYRKLALKYHPDKNPDNPEAADKFKEINNAHAILTDATKRNIYD [D15M], the abundance fitness was -0.359 ± 0.14.

With LYHVLGLDKNATSDDIKDSYRKLALKYHPDKNPDNPEAADKFKEINNAHAILTDATKRNIYD [K18D], the abundance fitness was -0.062 ± 0.19.

Regarding LYHVLGLDKNATSDDIKYSYRKLALKYHPDKNPDNPEAADKFKEINNAHAILTDATKRNIYD [K18Y], the abundance fitness was -0.333 ± 0.19.

On to LYHVLGLDKNATSDDIKVSYRKLALKYHPDKNPDNPEAADKFKEINNAHAILTDATKRNIYD [K18V], for which the abundance fitness was -0.098 ± 0.069.
